Experimental data as given in article PMC11169542, “A probe for NIR-II imaging and multimodal analysis of early Alzheimer’s disease by targeting CTGF” (Nature Communications, 2024).
Ends that are not written are not given here.

Key:
CTGF [1] = assay: Quantitating CTGF in DGC-labelled cells by ICP-MS; format: cell-based
Protocol: After U87MG, SH-SY5Y, and CTX TNA2 cells were imaged by a laser confocal microscopy system, these cells labeled with DGC were quantitatively analyzed by an ICP-MS system (Thermo Elemental X7, USA). Each cell group in the glass vials was digested by adding 5 mL aqua regia (HCl: HNO3 = 3:1) overnight. Subsequently, the aqua regia was heated to evaporate to the last drop to be diluted by a mixture of 2% HNO3 and 1% HCl. A standard curve of Au was made to quantify the concentration of Au in different cells. ICP-MS was used to test the Au signal in triplicates.

CTGF [2] = assay: Chromogenic DAB oxidation in DGC-labelled cells; format: cell-based; conditions: 40 μM DGC 4 °C overnight + DAB, Image Pro Plus
Protocol: To observe accurately the expression level of CTGF in cells with the naked eye, we optimized the conditions for labeling U87MG, SH-SY5Y, and CTX TNA2 cells stained with DGC. According to the study, the optimal incubation concentration of DGC (40 μM) was used to determine the optimal culture conditions using the DAB Horseradish Peroxidase Color Development Kit. After the cells were co-stained by DGC at 4 °C overnight, a DAB chromogenic agent was added to the cells. Since DGC can label CTGF proteins on the cells, when DAB chromogenic is added, DGC on the cells can catalyze DAB to produce an insoluble brown precipitate to attach to the cells.

CTGF [3] = target: T1, CTGF (Homo sapiens, UniProt P29279); assay: Affinity between DGC/DAG and CTGF protein by SPR (BIAcore); format: binding; design: purchased Abcam ab283457; conditions: ratio of SPR KD values
T1 sequence (P29279 27-349): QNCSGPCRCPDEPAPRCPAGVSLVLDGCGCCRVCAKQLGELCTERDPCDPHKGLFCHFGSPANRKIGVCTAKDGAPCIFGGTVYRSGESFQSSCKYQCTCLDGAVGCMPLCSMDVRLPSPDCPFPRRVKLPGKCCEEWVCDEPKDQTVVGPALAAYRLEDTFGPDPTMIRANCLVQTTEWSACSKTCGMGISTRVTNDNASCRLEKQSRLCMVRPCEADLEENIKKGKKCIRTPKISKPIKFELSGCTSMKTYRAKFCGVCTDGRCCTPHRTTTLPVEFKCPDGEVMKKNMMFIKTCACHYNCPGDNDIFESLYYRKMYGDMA
Protocol: Real-time binding and kinetic analyses by surface plasmon resonance (SPR) were performed on a BIAcore 8 K^+ instrument (Pharmacia Biosensor AB). The recombinant Human CTGF protein (Abcam, Cat#ab283457) was immobilized on a CM5 chip by using an amine coupling kit, and the remaining coupling sites were blocked with ethanolamine. The eluent contained PBS and 0.005% Tween 20. Binding was evaluated over a range of DAG (0.5–16 μM) or DGC (0.01– 0.16 μM) concentrations at 25 °C. Kinetic parameters were further determined with Biacore Insight Evaluation 3.0 software.

CTGF [4] = target: T1, CTGF; assay: DGC fluorescence labelling of human postmortem brain sections; design: The brain tissue samples of autopsy-confirmed AD patients were obtained from the Chinese Brain Bank Center; from tissue; host or cells: postmortem human brain sections (hippocampus, cortex) of AD patients and healthy controls; conditions: for fluorescence (FL) intensity of DGC: cortex section, ImageJ
Protocol: (§1) The brain tissue samples of autopsy-confirmed AD patients were obtained from the Chinese Brain Bank Center (CBBC) and Human Brain Bank, Central South University Xiangya School of Medicine. First, the brain sections were air-dried for 15 min at room temperature, followed by immersion in water. 5% H2O2 was applied for 15 min at room temperature. The sections were washed three times with PBS for 5 min each time. Then, tissue repair was performed using trypsin at a temperature of 37 °C for 5 min and washed three times with PBS. We chose 10% sheep serum to block for a duration of 20 min at 37°. Primary antibodies (CTGF antibody and Aβ antibody) were added to the sections overnight at 4 °C. FITC-labeled Goat Anti-Rabbit IgG (H + L) (1: dilution 1:200, Bioss, Cat#bs-0370R-FITC) was applied and incubated at 37 °C for 20 min in darkness. Subsequent washing steps involved rinsing the sections three times with PBS, each time lasting for 5 min while avoiding exposure to light. DAPI staining was performed, taking care to store the samples away from light during the 5-min procedure. Then observed by the CLSM system. Then, we chose the optimal incubation concentration of DGC (200 μM) was used to determine the conditions using DAB Horseradish Peroxidase Color Development Kit. After the brain sections were co-stained by DGC (200 μM) at 4 °C overnight, a DAB chromogenic agent was added to the brain tissue sections to explore whether DGC can catalyze DAB solutions to produce insoluble brown precipitate to attach the brain tissue sections with an optical microscope. Finally, the brain tissue sections were digested with aqua regia to measure the Au content by the ICP-MS system.

CTGF [5] = target: T1, CTGF; assay: DAB chromogenic imaging of DGC-labelled human brain sections; design: The brain tissue samples of autopsy-confirmed AD patients were obtained from the Chinese Brain Bank Center; from tissue; host or cells: postmortem human brain sections (hippocampus, cortex) of AD patients and healthy controls; conditions: 200 μM DGC 4 °C overnight + DAB
Protocol: as §1

DGC: CTGF-targeting peptide-coated gold nanocluster: one Au26 gold nanocluster coated by eight DAG cyclic peptides, NIR-II and red fluorescence (CDAGRKQKC; also: cyclic peptide, ring not given here, eight peptides on one Au26 nanocluster via Cys Au-S bonds)
ICP-MS DGC (Au) content per cell (CTGF [1]; DGC-labelled CTX TNA2 cells, replicate 1): 1.359
ICP-MS DGC (Au) content per cell (CTGF [1]; DGC-labelled CTX TNA2 cells, replicate 2): 1.246
ICP-MS DGC (Au) content per cell (CTGF [1]; DGC-labelled CTX TNA2 cells, replicate 3): 1.418
ICP-MS DGC (Au) content per cell (CTGF [1]; DGC-labelled SH-SY5Y cells, replicate 1): 3.579
ICP-MS DGC (Au) content per cell (CTGF [1]; DGC-labelled SH-SY5Y cells, replicate 2): 3.885
ICP-MS DGC (Au) content per cell (CTGF [1]; DGC-labelled SH-SY5Y cells, replicate 3): 3.913
ICP-MS DGC (Au) content per cell (CTGF [1]; DGC-labelled U87MG cells, replicate 1): 9.5834
ICP-MS DGC (Au) content per cell (CTGF [1]; DGC-labelled U87MG cells, replicate 2): 9.979
ICP-MS DGC (Au) content per cell (CTGF [1]; DGC-labelled U87MG cells, replicate 3): 9.837
DAB chromogenic imaging intensity (CTGF [2]; CTX TNA2 cells, replicate 1): 0.0128
DAB chromogenic imaging intensity (CTGF [2]; CTX TNA2 cells, replicate 2): 0.01748
DAB chromogenic imaging intensity (CTGF [2]; CTX TNA2 cells, replicate 3): 0.0191
DAB chromogenic imaging intensity (CTGF [2]; SH-SY5Y cells, replicate 1): 0.04369
DAB chromogenic imaging intensity (CTGF [2]; SH-SY5Y cells, replicate 2): 0.03714
DAB chromogenic imaging intensity (CTGF [2]; SH-SY5Y cells, replicate 3): 0.0465
DAB chromogenic imaging intensity (CTGF [2]; U87MG cells, replicate 1): 0.1444
DAB chromogenic imaging intensity (CTGF [2]; U87MG cells, replicate 2): 0.1042
DAB chromogenic imaging intensity (CTGF [2]; U87MG cells, replicate 3): 0.1075
binding affinity of DGC to CTGF relative to free DAG peptide (CTGF [3]): more than 1000 times
FL Intensity (CTGF [4]; AD 1, Cortex section stained with DGC): 8.08
FL Intensity (CTGF [4]; AD 1, Hippocampus section stained with DGC): 9.357
FL Intensity (CTGF [4]; AD 2, Cortex section stained with DGC): 14.1982
FL Intensity (CTGF [4]; AD 2, Hippocampus section stained with DGC): 17.484
fluorescence (FL) intensity of DGC (CTGF [4]; Case 1 (healthy control, Thal 0), section 1): 0.3032
fluorescence (FL) intensity of DGC (CTGF [4]; Case 1 (healthy control, Thal 0), section 2): 0.3289
fluorescence (FL) intensity of DGC (CTGF [4]; Case 1 (healthy control, Thal 0), section 3): 0.3505
fluorescence (FL) intensity of DGC (CTGF [4]; Case 2 (healthy control, Thal 0), section 1): 0.2446
fluorescence (FL) intensity of DGC (CTGF [4]; Case 2 (healthy control, Thal 0), section 2): 0.3615
fluorescence (FL) intensity of DGC (CTGF [4]; Case 2 (healthy control, Thal 0), section 3): 0.163
fluorescence (FL) intensity of DGC (CTGF [4]; Case 3 (AD, Thal 1), section 1): 0.6904
fluorescence (FL) intensity of DGC (CTGF [4]; Case 3 (AD, Thal 1), section 2): 0.8926
fluorescence (FL) intensity of DGC (CTGF [4]; Case 3 (AD, Thal 1), section 3): 0.6063
fluorescence (FL) intensity of DGC (CTGF [4]; Case 4 (AD, Thal 1), section 1): 0.9911
fluorescence (FL) intensity of DGC (CTGF [4]; Case 4 (AD, Thal 1), section 2): 1.101
fluorescence (FL) intensity of DGC (CTGF [4]; Case 4 (AD, Thal 1), section 3): 1.556
FL Intensity (CTGF [4]; HC 1, Cortex section stained with DGC): 1.2358
FL Intensity (CTGF [4]; HC 1, Hippocampus section stained with DGC): 1.043
FL Intensity (CTGF [4]; HC 2, Cortex section stained with DGC): 1.632
FL Intensity (CTGF [4]; HC 2, Hippocampus section stained with DGC): 6.0176
DAB chromogenic intensity (CTGF [5]; AD 1, Cortex section): 0.04756
DAB chromogenic intensity (CTGF [5]; AD 1, Hippocampus section): 0.01899
DAB chromogenic intensity (CTGF [5]; AD 2, Cortex section): 0.04585
DAB chromogenic intensity (CTGF [5]; AD 2, Hippocampus section): 0.0257
DAB chromogenic intensity (CTGF [5]; HC 1, Cortex section): 0.0065
DAB chromogenic intensity (CTGF [5]; HC 1, Hippocampus section): 0.00154
DAB chromogenic intensity (CTGF [5]; HC 2, Cortex section): 0.008159
DAB chromogenic intensity (CTGF [5]; HC 2, Hippocampus section): 0.005
